Data set [1] has as its system T1, GST-322 prephosphorylated by PKC.
T1 sequence: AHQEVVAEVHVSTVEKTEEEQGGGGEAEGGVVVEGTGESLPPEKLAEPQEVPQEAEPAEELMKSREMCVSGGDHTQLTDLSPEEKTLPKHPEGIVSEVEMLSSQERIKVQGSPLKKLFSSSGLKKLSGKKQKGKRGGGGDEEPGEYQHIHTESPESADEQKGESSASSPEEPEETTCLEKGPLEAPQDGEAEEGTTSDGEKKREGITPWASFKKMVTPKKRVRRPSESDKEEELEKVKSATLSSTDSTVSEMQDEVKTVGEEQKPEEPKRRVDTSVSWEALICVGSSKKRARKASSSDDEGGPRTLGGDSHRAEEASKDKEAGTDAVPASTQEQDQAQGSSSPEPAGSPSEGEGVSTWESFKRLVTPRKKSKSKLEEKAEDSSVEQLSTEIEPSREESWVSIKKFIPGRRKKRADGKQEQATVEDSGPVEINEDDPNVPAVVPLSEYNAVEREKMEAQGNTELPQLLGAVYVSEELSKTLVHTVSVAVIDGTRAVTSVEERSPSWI
Put plainly: GST pull-down of PKC with phosphatidylserine; against the unphosphorylated fusion protein.

The subject of data set [2] is T2, GST-322 fusion protein.
T2 sequence: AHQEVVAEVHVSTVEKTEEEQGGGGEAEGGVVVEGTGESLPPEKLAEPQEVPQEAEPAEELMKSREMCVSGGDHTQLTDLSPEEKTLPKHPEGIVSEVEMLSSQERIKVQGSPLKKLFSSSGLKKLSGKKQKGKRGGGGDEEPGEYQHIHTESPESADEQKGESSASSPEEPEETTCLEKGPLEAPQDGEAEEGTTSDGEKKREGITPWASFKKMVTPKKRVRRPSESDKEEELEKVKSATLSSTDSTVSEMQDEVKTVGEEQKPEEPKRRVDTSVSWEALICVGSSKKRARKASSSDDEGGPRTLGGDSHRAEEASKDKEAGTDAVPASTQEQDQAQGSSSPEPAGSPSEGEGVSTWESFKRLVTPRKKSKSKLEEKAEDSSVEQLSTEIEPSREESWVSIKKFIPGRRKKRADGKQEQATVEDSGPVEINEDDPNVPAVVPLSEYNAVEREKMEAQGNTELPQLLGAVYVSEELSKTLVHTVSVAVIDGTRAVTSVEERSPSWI

Data set [3] deals with T3, cyclin D1 (endogenous and ectopic) of S24, S24/D1, S24/V and V3 cells (UniProt P25322 1-295). The data set is described as follows: cell-based or functional assay.
Data set [4] addresses T3, cyclin D1 (endogenous and ectopic) of …. The data set is described as follows: cell-based or functional assay. This is another data set of the same source.
For data set [5], the target named is cyclin D1 (endogenous and ectopic) of S24, S24/D1, S24/V and V3 cells (UniProt P25322). The data set is described as follows: GST pull-down with mutated GST-SSeCKS2.

Where no end group is shown, it is not given here. [ ]: non-standard residue; d: D form. pS = N[C@@H](COP(=O)(O)O)C(=O)O

T3 sequence (P25322 whole entry): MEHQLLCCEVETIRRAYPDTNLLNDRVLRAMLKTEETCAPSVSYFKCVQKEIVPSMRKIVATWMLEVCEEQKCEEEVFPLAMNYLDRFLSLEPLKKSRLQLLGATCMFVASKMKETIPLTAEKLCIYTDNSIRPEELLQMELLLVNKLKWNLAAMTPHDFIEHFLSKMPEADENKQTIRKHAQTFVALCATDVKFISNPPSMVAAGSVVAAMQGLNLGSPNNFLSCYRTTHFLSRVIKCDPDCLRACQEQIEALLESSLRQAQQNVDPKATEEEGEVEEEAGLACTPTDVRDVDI
cyclin D1 (endogenous and ectopic) of S24, S24/D1, S24/V and V3 cells (UniProt P25322), sequence (P25322 whole entry): as above

Take purified rabbit brain PKC: in data set [1], the “fold decrease of binding after prephosphorylation by PKC” value was “Prephosphorylation of GST-322 by PKC decreases this binding at least 10-fold”. For the same molecule, the “in vitro phosphorylation by PKC ([32P]ATP, SDS-PAGE and autoradiography)” value in data set [2] is “purified rat brain PKC containing α, β, and δ isoforms could phosphorylate GST-322 protein in vitro”. RQIKIWFQNRRMKWKKLKKLF[pS]SSGLKKL[pS]GK (also: N-terminal biotin on half of the product) [penetratin-linked phosphoserine CY peptide]: the “% of cells showing nuclear staining of cyclin D1, S24/D1, -TET, peptide 100 µg/ml for 4 h” value (“% of cells showing nuclear staining … for 4 h” for short) in data set [3] turned out to be 39%. RQIKIWFQNRRMKWKKLKKLFSSSGLKKLSGK (also: N-terminal biotin on half of the product) [penetratin-linked wt SSeCKS CY peptide]: the “% of cells showing nuclear staining … for 4 h” value in data set [3] came to 82%. Moreover, the “increase in cyclin D translocation to nuclei, S24/D1 cells incubated 4 h with peptide” value in data set [4] is ~2 fold. For RQIKIWFQNRRMKWKKLSSSFSSSGLSSSSGK (also: N-terminal biotin on half of the product) [penetratin-linked mutated CY peptide (K→S)], the “% of cells showing nuclear staining … for 4 h” value in data set [3] is 30%.

B1: GST-SSeCKS2 with upstream KK mutated to SS (protein, not shown: a dimerising Fc or GST)
chain: AHQEVVAEVHVSTVEKTEEEQGGGGEAEGGVVVEGTGESLPPEKLAEPQEVPQEAEPAEELMKSREMCVSGGDHTQLTDLSPEEKTLPKHPEGIVSEVEMLSSQERIKVQGSPLSSLFSSSGLKKLSGKKQKGKRGGGGDEEPGEYQHIHTESPESADEQKGES
Regarding B1, in data set [5], the reduction of cyclin D1 binding against wild-type GST-SSeCKS2 was 70%.

B2: GST-SSeCKS2 with downstream KK mutated to SS (protein, not shown: a dimerising Fc or GST)
chain: AHQEVVAEVHVSTVEKTEEEQGGGGEAEGGVVVEGTGESLPPEKLAEPQEVPQEAEPAEELMKSREMCVSGGDHTQLTDLSPEEKTLPKHPEGIVSEVEMLSSQERIKVQGSPLKKLFSSSGLSSLSGKKQKGKRGGGGDEEPGEYQHIHTESPESADEQKGES
In the case of B2, in data set [5], the reduction of cyclin D1 binding against wild-type GST-SSeCKS2 stood at 70%.

The record behind these values is patent publication US20050260693A1 (MOUNT SINAI SCHOOL OF MEDICINE, published 2005).
